Results from the supplement of paper PMC9732359.
± gives the uncertainty stated by the source.

Test: protein stability index of a GFP-peptide fusion (yeast GPS) (PSI 1-4); higher = more stable; sorted into four equal gates, so the index is relative within each strain
Outline: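 The protein stability index of a peptide was calculated by multiplying its read frequency in each gate by that gate's number and adding the products. The peptides were tiled 17-residue stretches of yeast proteins, fused downstream of GFP on a Cherry-expressing plasmid and carried in yeast as a pooled library. Mid-log cultures in leucine-free medium were sorted into four equal gates by GFP/Cherry ratio, and each gate's plasmids were PCR-amplified and Illumina-sequenced.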

Sequence | protein stability index (doa10∆) | protein stability index (pdr5∆) | protein stability index (san1∆) | protein stability index (ubr1∆)
KEIYTTLGNQMLSAHNI [YJR042W/NUP85] | 2.85 ± 0.099 | 2.82 ± 0.077 | 3.12 ± 0.079 | 3.08 ± 0.063
EAVEIPVNSADGKEDVE [SME1] | 2.29 ± 0.061 | 2.8 ± 0.056 | 2.77 ± 0.04 | 2.67 ± 0.04
QTSVTTNFNEITNTDET [SWP82] | 2.84 ± 0.061 | 3.09 ± 0.051 | 2.86 ± 0.042 | 3.14 ± 0.039
WVNMLLISSSGPIKTPV [FAS2] | 1.87 ± 0.059 | 1.32 ± 0.051 | 1.23 ± 0.082 | 1.53 ± 0.047
YQVEYAFKATNQTNINS [SCL1] | 2.97 ± 0.072 | 3.19 ± 0.056 | 2.99 ± 0.081 | 3.06 ± 0.073
VKDKQSKVSDDSESESG [RPN8] | 1.97 ± 0.11 | 2.78 ± 0.13 | – | 2.9 ± 0.13
FSFSKSEEERKSSPISN [YOR098C/NUP1] | 2.48 ± 0.11 | 2.23 ± 0.071 | 2.41 ± 0.091 | 2.94 ± 0.084
WGIPLIKELRSKGYPIQ [FAS1] | 2.38 ± 0.16 | 2.75 ± 0.091 | 1.69 ± 0.2 | 1.85 ± 0.071
FDDLLKPVYKGKKLTDE [RET1] | – | 2.85 ± 0.27 | 3.32 ± 0.12 | –
TVVTVVSTAKFSGKYLK [RPL22A] | 3.18 ± 0.12 | 3.13 ± 0.083 | 3.38 ± 0.17 | 2.96 ± 0.065
SLQNNLQNNINNSNNNN [SNF11] | 3.19 ± 0.078 | 3.27 ± 0.099 | 3.31 ± 0.066 | 3.29 ± 0.062
SSVEMLLDVVKGTEASN [YDL116W/NUP84] | 2.89 ± 0.071 | 3.1 ± 0.091 | 2.55 ± 0.052 | 2.9 ± 0.063
KPFLKKTQEYYTQYTND [CDC53] | 3.02 ± 0.061 | 3.12 ± 0.053 | 3.07 ± 0.044 | 3.01 ± 0.046
NKIDQSLQYIERQQDEL [YJL041W/NSP1] | 3.18 ± 0.15 | 3.19 ± 0.12 | 3.25 ± 0.096 | 2.93 ± 0.061
ADNNDLQESINHVMYTE [ECM29] | 2.66 ± 0.086 | 3.02 ± 0.096 | 3.05 ± 0.1 | 3.02 ± 0.054
AELDPSLRTPIAPKITP [SEC65] | 3.06 ± 0.1 | 3.05 ± 0.058 | 3 ± 0.082 | 3.13 ± 0.055
YLHQNWVLHRDLKPANI [SSN3] | 2.23 ± 0.12 | 2.74 ± 0.13 | 2.72 ± 0.23 | 2.38 ± 0.14
RVQLSGKIQENIPFWKH [SRP72] | 2.56 ± 0.071 | 2.44 ± 0.067 | 2.13 ± 0.07 | 2.4 ± 0.041
LSIAFENGDYAACEKLL [RPN12] | 3.13 ± 0.17 | 3 ± 0.12 | 3.16 ± 0.077 | 3.24 ± 0.12
NQIPVTEHSKVTRFDEK [SRB6] | 2.28 ± 0.05 | 3.02 ± 0.049 | 2.86 ± 0.052 | 2.87 ± 0.048
MEWPKDMLKYKEDEPVV [ITC1] | 2.75 ± 0.27 | 3.12 ± 0.14 | 3.36 ± 0.09 | 3.67 ± 0.17
MLGHYLGEFSITYTPVR [RPS15] | 2.27 ± 0.19 | 2.83 ± 0.073 | 2.04 ± 0.16 | 2.86 ± 0.18
ANRSRFNNEAPPQTRKF [SMB1] | 3.05 ± 0.083 | 3.03 ± 0.049 | 2.87 ± 0.069 | 3.26 ± 0.047
KDEEETEYFENKQSVSN [DSN1] | 3.46 ± 0.12 | 3.4 ± 0.091 | 3.31 ± 0.085 | 3.53 ± 0.054
YFSVTTARRNVSGDAAA [SWI3] | 1.9 ± 0.059 | 2.23 ± 0.063 | 2.33 ± 0.08 | 1.88 ± 0.047
YKCTAAMEKYLLSKSKI [MTW1] | 2.21 ± 0.038 | 2.58 ± 0.056 | 2.44 ± 0.049 | 2.69 ± 0.03
